Data on eight molecules can be found in article PMC4803204, “A Novel Glutamyl (Aspartyl)-Specific Aminopeptidase A from Lactobacillus delbrueckii with Promising Properties for Application” (PLoS ONE, 2016).

For data set [1], the target named is T1, Lc-PepA (Lactococcus lactis, UniProt Q9CIH3).
T1 construct: full length (355 aa, 1068 bp gene), C-terminal His6-tag kept, pET20b(+), E. coli BL21(DE3), Ni-NTA purified
T1 sequence (Q9CIH3 1-355): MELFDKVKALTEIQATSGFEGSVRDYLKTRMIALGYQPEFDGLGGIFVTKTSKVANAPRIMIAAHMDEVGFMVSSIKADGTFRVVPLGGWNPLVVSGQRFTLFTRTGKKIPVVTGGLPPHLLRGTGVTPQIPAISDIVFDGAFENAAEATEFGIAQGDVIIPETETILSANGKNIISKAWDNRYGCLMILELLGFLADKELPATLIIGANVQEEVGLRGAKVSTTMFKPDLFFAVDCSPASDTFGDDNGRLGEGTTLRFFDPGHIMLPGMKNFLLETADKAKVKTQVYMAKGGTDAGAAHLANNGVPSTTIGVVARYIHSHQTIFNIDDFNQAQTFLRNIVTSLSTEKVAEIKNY
The data set can be described thus: p-nitroaniline release at […] nm, Michaelis-Menten nonlinear fit. In kind it is biochemical. The settings on record: substrate inhibition constant, apparent; 50 mM Na/K-phosphate pH 8.0, 65 °C, 0.3125 mM CoCl2.

Another data set addresses T2, Lb-PepA (Lactobacillus delbrueckii, UniProt F0HXE4).
T2 construct: full length (361 aa, 1086 bp gene), C-terminal His6-tag kept, pET20b(+), E. coli BL21(DE3), Ni-NTA purified
T2 sequence (F0HXE4 1-361): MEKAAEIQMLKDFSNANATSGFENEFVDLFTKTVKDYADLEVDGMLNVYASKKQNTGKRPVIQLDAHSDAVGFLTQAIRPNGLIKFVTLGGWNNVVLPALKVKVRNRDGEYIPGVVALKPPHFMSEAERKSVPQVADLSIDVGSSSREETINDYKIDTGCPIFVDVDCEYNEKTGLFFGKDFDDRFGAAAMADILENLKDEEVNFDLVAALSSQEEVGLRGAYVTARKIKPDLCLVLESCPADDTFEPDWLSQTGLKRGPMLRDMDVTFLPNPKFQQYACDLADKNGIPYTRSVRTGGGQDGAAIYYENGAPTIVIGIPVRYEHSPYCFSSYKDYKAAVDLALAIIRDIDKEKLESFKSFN
The data set is described as above. It is filed as biochemical. The conditions noted are these: substrate inhibition constant, apparent; 50 mM Na/K-phosphate pH 6.0, 60 °C, 0.625 mM CoCl2.

Data set [2] has as its target T1, Lc-PepA. The data set is described as above. It is filed as biochemical. The conditions noted are these: substrate inhibition constant, apparent; 50 mM Na/K-phosphate pH 8.0, 65 °C, 0.3125 mM CoCl2. The source holds these as a separate data set.
Data set [3] deals with T1, Lc-PepA. The data set can be described thus: product inhibition, p-nitroaniline release at […] nm. It is filed as biochemical.
In data set [4] the target is Glutamyl (aspartyl)-specific aminopeptidase A (PepA) from Lactobacillus delbrueckii ssp. lactis DSM 20072 (Lactobacillus delbrueckii ssp. lactis DSM 20072). The data set can be described thus: SEC; Superdex 200 10/300 GL, 30 uL at 1 mg/mL, 0.75 mL/min, 10 mM Na/K-phosphate pH 6.0 with 150 mM NaCl; native mass against calibration proteins, divided by the monomer's mass.

Data set [5] concerns the target Glutamyl (aspartyl)-specific aminopeptidase A (PepA) from Lactococcus lactis ssp. lactis DSM 20481 (Lactococcus lactis ssp. lactis DSM 20481) (UniProt Q48677). The data set can be described thus: SEC; Superdex 200 10/300 GL, 30 uL at 1 mg/mL, 0.75 mL/min, 10 mM Na/K-phosphate pH 8.0 with 150 mM NaCl; native mass against calibration proteins, divided by the monomer's mass.

Substrate in data set [6]: N[C@@H](CCC(=O)O)C(=O)Nc1ccc([N+](=O)[O-])cc1
The data set can be described thus: purified protein. It is filed as biochemical, Lactobacillus delbrueckii. The conditions noted are these: apparent, 50 mM Na/K-phosphate pH 6.0, 60 °C, 0.625 mM CoCl2, about 5% DMSO, substrate tested only up to 7.3 mM (solubility).

Substrate in data set [7]: N[C@@H](CC(=O)O)C(=O)Nc1ccc([N+](=O)[O-])cc1
Briefly: purified protein. In kind it is biochemical, Lactobacillus delbrueckii. The settings on record: apparent, 50 mM Na/K-phosphate pH 6.0, 60 °C, 0.625 mM CoCl2, about 5% DMSO, fit with substrate inhibition.

Substrate in data set [8]: N[C@@H](CCC(=O)O)C(=O)Nc1ccc([N+](=O)[O-])cc1
The data set can be described thus: purified protein. The conditions noted are these: apparent, 50 mM Na/K-phosphate pH 8.0, 65 °C, 0.3125 mM CoCl2, about 5% DMSO, fit with substrate inhibition. It is filed as biochemical, Lactococcus lactis.

Substrate in data set [9]: N[C@@H](CC(=O)O)C(=O)Nc1ccc([N+](=O)[O-])cc1
Briefly: purified protein. In kind it is biochemical, Lactococcus lactis. The settings on record: apparent, 50 mM Na/K-phosphate pH 8.0, 65 °C, 0.3125 mM CoCl2, about 5% DMSO, fit with substrate inhibition.

Turning to `N[C@@H](CC(=O)O)C(=O)Nc1ccc([N+](=O)[O-])cc1` [H-Asp-pNA], the “H-Asp-pNA / KIS [mM]” value turned out to be 41.9 mM on Lc-PepA [1] and 6.66 mM on Lb-PepA.
In the case of `N[C@@H](CCC(=O)O)C(=O)Nc1ccc([N+](=O)[O-])cc1` [H-Glu-pNA], on Lc-PepA [2], the “H-Glu-pNA / KIS [mM]” value came out at 3.61 mM.
At Lc-PepA [3], `N[C@@H](CC(=O)O)C(=O)O` [L-Asp] yielded an activity at 10000 µM of 78.2%.
The same measure, in the same setting: with `N[C@@H](CCC(=O)O)C(=O)O` [L-Glu] the figure was 82.3%.
For orientation: stoichiometry N means the number of molecules, sites or subunits per partner or assembly. “Glutamyl (aspartyl)-specific aminopeptidase A (PepA) from Lactobacillus delbrueckii ssp. lactis DSM 20072 (enzyme)” gave a stoichiometry N in data set [4] of 12.
“Glutamyl (aspartyl)-specific aminopeptidase A (PepA) from Lactococcus lactis ssp. lactis DSM 20481 (from UniProt Q48677 1-355) (enzyme)”: the stoichiometry N in data set [5] was determined as 12.

B1: Lb-PepA (Lactobacillus delbrueckii subsp. lactis DSM 20072) (protein)
chain: MEKAAEIQMLKDFSNANATSGFENEFVDLFTKTVKDYADLEVDGMLNVYASKKQNTGKRPVIQLDAHSDAVGFLTQAIRPNGLIKFVTLGGWNNVVLPALKVKVRNRDGEYIPGVVALKPPHFMSEAERKSVPQVADLSIDVGSSSREETINDYKIDTGCPIFVDVDCEYNEKTGLFFGKDFDDRFGAAAMADILENLKDEEVNFDLVAALSSQEEVGLRGAYVTARKIKPDLCLVLESCPADDTFEPDWLSQTGLKRGPMLRDMDVTFLPNPKFQQYACDLADKNGIPYTRSVRTGGGQDGAAIYYENGAPTIVIGIPVRYEHSPYCFSSYKDYKAAVDLALAIIRDIDKEKLESFKSFN
notes: full length (361 aa, 1086 bp gene), C-terminal His6-tag kept, pET20b(+), E. coli BL21(DE3), Ni-NTA purified
By Km is commonly meant the substrate concentration at which the rate is half of its maximum. For B1, the values for the Michaelis-Menten constant (Km) in “purified protein [6]” and in the data set “purified protein [7]” were 25.2 mM and 1.21 mM, respectively.

B2: Lc-PepA (Lactococcus lactis subsp. lactis Il1403) (protein)
chain: MELFDKVKALTEIQATSGFEGSVRDYLKTRMIALGYQPEFDGLGGIFVTKTSKVANAPRIMIAAHMDEVGFMVSSIKADGTFRVVPLGGWNPLVVSGQRFTLFTRTGKKIPVVTGGLPPHLLRGTGVTPQIPAISDIVFDGAFENAAEATEFGIAQGDVIIPETETILSANGKNIISKAWDNRYGCLMILELLGFLADKELPATLIIGANVQEEVGLRGAKVSTTMFKPDLFFAVDCSPASDTFGDDNGRLGEGTTLRFFDPGHIMLPGMKNFLLETADKAKVKTQVYMAKGGTDAGAAHLANNGVPSTTIGVVARYIHSHQTIFNIDDFNQAQTFLRNIVTSLSTEKVAEIKNY
notes: full length (355 aa, 1068 bp gene), C-terminal His6-tag kept, pET20b(+), E. coli BL21(DE3), Ni-NTA purified
As to B2, the Km in “purified protein [8]” stood at 0.19 mM; in the data set “purified protein [9]”, 0.34 mM.
